Measured values published in patent publication US11906524B2, “Urea biosensors and uses thereof” (Duke University, priority 2015, dated 2024).
Marks after values point to notes of the source that are not given here.

B1: bsUBP3: urea-binding protein from Bacillus sp., SEQ ID NO: 14 (protein)
chain: MKVGILHSLSGTMAISEVSVHDAELIAIQEINQKGGVLGKKLEPVVEDGASDWPTYAEKMRKLLQQDKVAAVFGGWTSASRKAMLPVVEQNNGLLFYPVQYEGMETSPNIFYTGATTNQQIVPAVDWLLKNKGKKFFLIGSDYVFPRTANKIIKAQVKAGGGEIAGEEYTPLGHTNYSTLVSKIKEKQPDVIFNTLNGDSNVAFFKQLKDAGISADDMPVMSASVAEEEIRGIGPDVLKGHYAVWNYFQTTNTSENQTFVKNYKKMNGDSRVTSDPIEAGYNAVYLWAAAVEKAKSFDVDKVKKAADGISFKAPGGTVKIDGDTQHLYKTVRIGQITGDGQFKEVWNSGEPVKPDPYLKTYDWAKGLSKGGSHHHHHH
modifications: bsUBP3 (with signal peptide replaced with M and a GGSHHHHHH at C-terminus)
B2: mhUBP2: urea-binding protein from Marinobacter hydrocarbanoclasticus, SEQ ID NO: 13 (protein)
chain: MKVGILHSLSGTMAISETALKDTMLMLIEKQNEAGGVLGRQLEPVVVDPASNWPLFAEKARELLEKEKVDVIFGNWTSVSRKSVLPVVEELNGLLFYPVQYEGEESSENVFYTGAAPNQQAIPAVDYLMNDLGVERWVLAGTDYVYPRTTNKILETYLKDKGVAAGDIMINYTPFGHSDWQTIVSDIKKFGSAGKKTAVVSTINGDANVPFYRELGNQGISATDIPVVAFSVGEQELSGIDTAPLVGHLAAWNYFMSVDNDANYDFIDAWVAYKGDDAAVTNDPMEAHYIGFNMYVEAVKKAGTTDVDEVKDAIIGVSVPNLTGGYATMMPNHHITKPVLIGEIQDNGQFSVVWETPSTVAGDAWSDFLPGSKDLISDWRAPLRAGNFNVVTGKAGGGSADVASNGGSHHHHHH
modifications: mhUBP2 (with signal peptide replaced with M and a GGSHHHHHH at C-terminus, and also comprising C385A and C395A mutations)
B3: teUBP12: urea-binding protein from Thermosynechococcus elongatus with FATT domain, SEQ ID NO: 22 (protein)
chain: MAEESDNVDSADAEEDDSDVWWGGADTDYADGSEDKVVEVAEEEEVAEVEEEEADDDEDDEDGDEVEEEAEEPYEEATERTTSIATTTTTTTESVEEVLEVLFQGPGGDTIKVGILHSLSGTMAISEKSVVDATQLAIEQINQAGGVLGKQIQPILEDGASDWPTFAEKATKLIDQDKVVAVFGAWTSASRKAVLPVFESKNHMLWYPVQYEGQEASKNIFYTGAAPNQQIEPAVDWLLQNKGKKFFLVGSDYVFPRTANTIIKAQLAAKGGETVGEDYLPLGNTEVTPIITRIRNALPDGGVIFNTLNGDSNVAFFKQLQGAGLTPDKYPTMSVSIAEEEVQAIGVEYLKGHYAAWNYFMTVDTPENKSFVEAFKAKFGQNRVTNDPMEAAYIAVHLWKQAVEQAGTADDLEKVRQAAIGQTFNAPEGPVKMFANHHISKTVRIGEVGEDGLFKIVYSTPQPVDPLPWNQFVAETKGFAADWTRTDVDNPGKFKAAGAGGSHHHHHH
modifications: teUBP12 (with signal peptide replaced with M, which is followed by a FATT domain, followed by a sequence fragment for C3 protease, and with a GGSHHHHHH at C-terminus, as well as C185A, C216A, and C481A mutations)

Experiment: Thermal stability of purified UBP candidates (SYPRO Orange thermal melt, Roche LightCycler)
Type: physicochemical
Conditions: apo-protein; SYPRO Orange monitors unfolded protein
Method: The urea-binding properties of these leads were determined experimentally (Table 4). These experiments comprise four successive steps: • 1. Synthetic gene construction. […] Heterologous protein expression of the homologues in E. coli. […] Verification of urea binding.
Analysis of urea-binding properties using thermal melts.

Row | Molecule | Thermostability ^apoTm
1 | B1 | 51 °C
2 | B2 | <25^e ° C.
3 | B3 | 84 °C
